# Laboratory results reported in patent US20090068202A1 (Genentech, published 2009).
# No end group written: not given here.
# T1: extracellular domain of human CD79b (huCD79becd) (human, UniProt P40259 29-159)
# T1 construct: Expressed in CHO cells
# T1 sequence: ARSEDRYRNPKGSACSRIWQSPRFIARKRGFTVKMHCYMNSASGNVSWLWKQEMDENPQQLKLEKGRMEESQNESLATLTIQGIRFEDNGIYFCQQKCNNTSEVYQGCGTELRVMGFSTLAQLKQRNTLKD
# T2: extracellular domain of human CD79b fused to Fc (huCD79becd-Fc) (human, UniProt P40259 29-159)
# T2 construct: Expressed in CHO cells; also called huCD79b-Fc; CD79b-Fc
# T2 sequence: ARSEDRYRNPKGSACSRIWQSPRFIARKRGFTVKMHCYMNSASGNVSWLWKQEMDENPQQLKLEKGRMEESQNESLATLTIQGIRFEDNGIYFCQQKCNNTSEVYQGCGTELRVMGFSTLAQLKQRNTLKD
# T3: 16 amino acid peptide (ARSEDRYRNPKGSACK) containing the epitope for 2F2 (human, also: biotinylated, site not given here)
# T3 construct: Synthetic peptide; Captured as biotinylated peptide on a streptavidin sensor chip; also called 16mer peptide; test peptide
# T3 peptide: ARSEDRYRNPKGSACK
# T4: human CD79b on BJAB cells (human, UniProt P40259 29-229)
# T4 construct: Endogenous CD79b of BJAB cells; also called PRO36249; endogenous human-CD79b
# T4 sequence: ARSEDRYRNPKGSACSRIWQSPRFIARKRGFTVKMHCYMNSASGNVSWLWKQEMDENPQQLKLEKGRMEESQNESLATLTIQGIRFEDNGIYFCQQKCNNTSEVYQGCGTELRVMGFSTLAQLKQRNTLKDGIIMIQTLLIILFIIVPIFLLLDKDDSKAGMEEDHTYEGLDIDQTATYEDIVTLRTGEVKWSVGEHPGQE
# What was measured:
# [1] = target: T1, extracellular domain of human CD79b …; experiment: Biacore surface plasmon resonance; huCD79becd immobilized on CM5 chip, IgG injected
# Description: (§1) Binding of Fab and IgG variants of ch2F2, the 2F2-grafted “humanized” antibody (hu2F2 graft) or 2F2-grafted “humanized” antibody variant 7 (hu2F2.D7) to immobilized huCD79becd or CD79b-Fc or the 16 amino acid peptide containing the epitope for 2F2 was measured by surface plasma resonance. Affinity determinations were performed by surface plasmon resonance using a BIAcore™-2000. The antigen, huCD79becd or huCD79b-Fc was immobilized (approximately 50-200 RU) in 10 mM sodium acetate pH 4.8 on a CM5 sensor chip. In experiments that measured binding to the 16 amino acid peptide ([…]) (SEQ ID NO: 78) containing the epitope (amino acids 1-11 of SEQ ID NO: 78) for 2F2, the biotinylated peptide was captured (approximately 20 RU) on a streptavidin coated sensor chip. Purified 2F2-grafted “humanized” antibody variant (as Fab or IgG) (a 2-fold serial dilution of 0.5 to 1000 nM in PBST) was injected at a flow rate of 30 μL/min. Each sample was analyzed with 4-minute association and 10-minute disassociation. After each injection the chip was regenerated using 10 mM Glycine pH 1.7.
# (§2) Binding response was corrected by subtracting a control flow cell from 2F2-grafted “humanized” antibody variant (as Fab or IgG) flow cells. A 1:1 Languir model of simultaneous fitting of kₒₙ and koff was used for kinetics analysis.
# [2] = target: T2, extracellular domain of human CD79b …; experiment: Biacore surface plasmon resonance; huCD79becd-Fc immobilized on CM5 chip, IgG injected
# Description: as §1, §2
# [3] = target: T3, 16 amino acid peptide …; experiment: Biacore surface plasmon resonance; biotinylated peptide captured on streptavidin chip, IgG injected; the sheet names the antigen '15mer peptide', legend and text name only the 16mer peptide (SEQ ID NO: 78)
# Description: as §1, §2
# [4] = target: T4, human CD79b on BJAB cells; experiment: Scatchard analysis, I-125 tracer competed by unlabeled IgG on BJAB cells stably expressing cynomolgus CD79b and endogenous human CD79b; ch2F2 IgG; BJAB cells stably expressing cynomolgus CD79b and endogenous human CD79b
# Description: (§3) To further determine binding of the IgG variants of the 2F2-graft “humanized” antibody variant 7 (hu2F2.D7) having changes in HVR-L3, binding of iodinated anti-CD79b (with the same epitope as ch2F2) to BJAB cells expressing human CD79b and cynomologous CD79b using competition with unlabeled ch2F2 was analyzed and Scatchard analysis was performed.
# (§4) For Scatchard analysis, 0.5 nM I¹²⁵ labeled anti-human CD79b with the same epitope as ch2F2 or 0.5 nM I¹²⁵ labeled 2F2-graft “humanized” antibody variant 7 (hu2F2.D7) was competed against unlabeled ch2F2 or hu2F2.D7, respectively, ranging from 50 to 0.02 nM (12 step 1:2 serial dilution) in the presence of a transfected BJAB line stably expressing cynomologous-CD79b and endogenous human-CD79b. After a four hour incubation at 4° C., cells were washed and cell pellet counts were read by a gamma counter (1470 WIZARD Automatic Gamma Counter; Perkin Elmer, Walthem, Mass.). All points were done in triplicate and counted for 10 minutes. The average CPM was used for Kd calculation using the New Ligand (Genentech, South San Francisco, Calif.) program.
# [5] = target: T1, extracellular domain of human CD79b …; experiment: Biacore surface plasmon resonance; huCD79becd immobilized on CM5 chip, Fab injected
# Description: as §1, §2
# [6] = target: T3, 16 amino acid peptide …; experiment: Biacore surface plasmon resonance; biotinylated 16mer peptide captured on streptavidin chip, IgG injected
# Description: as §1, §2
# [7] = target: T4, human CD79b on BJAB cells; experiment: Scatchard analysis, I-125 hu2F2.D7 competed by unlabeled hu2F2.D7 IgG on BJAB cells stably expressing cynomolgus CD79b and endogenous human CD79b; hu2F2.D7 reformatted as IgG; BJAB cells stably expressing cynomolgus CD79b and endogenous human CD79b
# Description: as §3, §4
Kd [1] [nM],Kd [2] [nM],Kd [3] [nM],Kd [4] [nM],Kd [5] [nM],Kd [6] [nM],Kd [7] [nM],Binder
1.4,2.7,2,0.99,–,–,–,"chimeric 2F2 antibody (ch2F2) IgG1 (antibody, V domains shown) VH: QVQLQQPGAELVRPGASVKLSCKASGYTFTSYWMNWVKQRPGQGLEWIGMIDPSDSETHYNHIFKDKATLTVDKSSSTAYLQLSSLTSEDSAVYYCARNLYLWGQGTSVTVSL VL: not shown"
–,–,–,–,68,–,–,"hu 2F2.D7 (Fab column) (Fab, V domains shown, also called 2F2-grafted humanized antibody variant 7 as purified Fab; copies: 1 + 1) VH: EVQLVESGGGLVQPGGSLRLSCAASGYTFTSYWMNWVRQAPGKGLEWVGMIDPSDSETHYNHIFKDRFTISADTSKNTAYLQMNSLRAEDTAVYYCARNLYLWGQGTLVTVSS VL: DIQMTQSPSSLSASVGDRVTITCKSSQSLLDSDGKTYLNWYQQKPGKAPKLLIYLVSKLDSGVPSRFSGSGSGTDFTLTISSLQPEDFATYYCFQGTHFPFTFGQGTKVEIKR"
3.9,–,–,–,–,2.7,2,"2F2-grafted ""humanized"" antibody variant 7 (hu2F2.D7), reformatted as IgG (antibody, V domains shown, also called humanized 2F2.D7) VH: EVQLVESGGGLVQPGGSLRLSCAASGYTFTSYWMNWVRQAPGKGLEWVGMIDPSDSETHYNHIFKDRFTISADTSKNTAYLQMNSLRAEDTAVYYCARNLYLWGQGTLVTVSS VL: DIQMTQSPSSLSASVGDRVTITCKSSQSLLDSDGKTYLNWYQQKPGKAPKLLIYLVSKLDSGVPSRFSGSGSGTDFTLTISSLQPEDFATYYCFQGTHFPFTFGQGTKVEIKR"
